Target: full-length (FL) UBQLN2 (UniProt Q9UHD9)
Assay: NMR titration

ubiquitin (Ub) (from UniProt P0CG48 1-76) (natural protein; other documents disagree on this pair)
Kd: 3000 nM

— publication PMC9346500
